Assay results from patent publication US20100233165A1 (published 2010).
Changes are numbered by the printed parent chain. Values belong to the binder of their own block, whether it stands above or below them.

Legend:
ALCAM/MEMD/CD166 [1] = molecular target: T1, ALCAM/MEMD/CD166 (UniProt Q13740 28-583, limits assumed); assay: caption of the IHC table
T1 construct: whole, on cells; On Du-145 prostate cancer cells for FACS, and from lysates of surface-biotinylated Du-145 cells for IP/Western; Glycosylated, with a band of about 105 kDa; Du-145 is a human prostate cancer line
T1 sequence (looked up): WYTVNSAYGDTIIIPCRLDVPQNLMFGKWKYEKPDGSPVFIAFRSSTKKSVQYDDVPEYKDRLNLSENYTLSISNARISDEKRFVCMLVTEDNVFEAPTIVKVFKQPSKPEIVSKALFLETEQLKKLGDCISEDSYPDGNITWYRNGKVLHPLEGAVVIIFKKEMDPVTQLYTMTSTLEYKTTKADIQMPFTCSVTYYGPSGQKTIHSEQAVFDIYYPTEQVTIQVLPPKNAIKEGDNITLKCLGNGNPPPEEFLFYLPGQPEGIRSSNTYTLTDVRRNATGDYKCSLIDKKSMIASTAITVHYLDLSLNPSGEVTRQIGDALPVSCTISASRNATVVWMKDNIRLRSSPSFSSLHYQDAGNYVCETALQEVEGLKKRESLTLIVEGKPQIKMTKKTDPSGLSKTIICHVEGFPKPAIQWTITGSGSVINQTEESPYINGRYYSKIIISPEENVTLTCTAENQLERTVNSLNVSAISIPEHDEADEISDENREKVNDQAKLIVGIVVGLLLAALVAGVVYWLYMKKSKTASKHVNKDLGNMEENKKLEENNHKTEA
Description: Phage antibodies selected by LCM were expected to bind to clinically relevant antigens on cancer cells in situ. We performed immunohistochemical studies using soluble scFv fragments derived from LCM-selected phage antibody on prostate cancer tissue sections. […] The 585II41 scFv also stained tumor cells intensely on frozen tissue slides (FIG. 4, panel B). Some basal cells in normal epithelium adjacent to tumor were also stained with reduced intensity (Table 5). […] These experiments indicate that antibodies obtained from LCM selection bind to antigens that exist in patient specimens and thus are clinically relevant to human prostate cancer. The corresponding antigens are likely targets for therapeutic intervention.
TABLE 5 Immunohistochemistry (IHC) results of the 585II41 and UA20 scFv fragments on a panel of frozen CaP and normal tissues. The numbers of cases studied are indicated. Biotinylated scFv fragments were first tested on cell lines to ensure binding activity and then used for IHC studies. As a control, a random scFv with no binding activity to cell lines was used to register the background level of staining. No change, no change in staining level was observed when compared with the result of the control scFv

ALCAM/MEMD/CD166 [2] = molecular target: T1, ALCAM/MEMD/CD166; assay: FACS competition on Du-145 cells against 585II41 scFv
ALCAM/MEMD/CD166 [3] = molecular target: T1, ALCAM/MEMD/CD166; assay: apparent KD by FACS on Du-145 cells, IgG1 incubated at 4° C. overnight, curve fitting of MFI
Method: Monodispersed DU-145 cells were incubated with varying concentrations of IgG1s at 4° C. overnight to allow equilibrium binding. After washing, bound human IgG1s were detected by R-phycoerythrin-conjugated goat anti-human secondary antibody and analyzed by FACS. Mean fluorescence intensity (MFI) values were plotted and the KD was determined by curve fitting using GraphPad (GraphPad Software, San Diego, Calif.).

binding result (ALCAM/MEMD/CD166 [1]): binds
B1: 585II41 scFv (scFv, not shown: small tags and cut ends)
scFv: QVQLVESGGGLVQPGGSLRLSCAASGFTFSSYAMGWVRQAPGKGLEWVSAISGSGGSTYYADSVKGRFTISRDNSKDTLYLQMNSLRAEDTAVYYCASRSLLDYWGQGTLVTVSSGGGGSGGGGSGGGGSNFMLTQDPAVSVALGQTVRITCQGDSLRSYYASWYQQKPGQAPLLVIYGKNNRPSGIPDRFSGSSSGNTASLTITGAQAEDEADYYCNSRDSSGNPVFGGGTKVTVL
notes: Soluble monomeric scFv from E. coli periplasm, purified by IMAC; Biotinylated for FACS analysis by the general methods; also called clone #10; H3 variant

binding result (ALCAM/MEMD/CD166 [2]): binds
B2: H3 scFv (585II41.1) (scFv)
scFv: B1 scFv with G35S
notes: also called clone #11; anti-ALCAM scFv

Kd (ALCAM/MEMD/CD166 [3]): 4.4 µM
B3: anti-ALCAM IgG1 (585II41.1, also known as H3) (antibody, V domains shown)
VH: QVQLVESGGGLVQPGGSLRLSCAASGFTFSSYAMSWVRQAPGKGLEWVSAISGSGGSTYYADSVKGRFTISRDNSKDTLYLQMNSLRAEDTAVYYCASRSLLDYWGQGTLVTVSS
VL: NFMLTQDPAVSVALGQTVRITCQGDSLRSYYASWYQQKPGQAPLLVIYGKNNRPSGIPDRFSGSSSGNTASLTITGAQAEDEADYYCNSRDSSGNPVFGGGTKVTVL
notes: Human IgG1 (detected with anti-human secondary antibody); also called H3 IgG; H3 IgG1
